# Test results reported in patent US20120009162A1 (published 2012).
# T1: Aurora-A kinase (Aur-A) peptide on HLA-A*02:01 (human)
# T1 peptide: YLILEYAPL
# Molecular target: T1, Aurora-A kinase (Aur-A) peptide on …
# Assay: multimer staining
binder,measurement,value
"TCR of the Aur-A-specific CTL clone AUR-1 (SEQ ID NOs 1 and 2) (TCR, V domains shown) Valpha: AQSVAQPEDQVNVAEGNPLTVKCTYSVSGNPYLFWYVQYPNRGLQFLLKYITGDNLVKGSYGFEAEFNKSQTSFHLKKPSALVSDSALYFCAVRDSNSNDYKLSFGAGTTVTVRA Vbeta: DAGITQSPRHKVTETGTPVTLRCHQTENHRYMYWYRQDPGHGLRLIHYSYGVKDTDKGEVSDGYSVSRSKTEDFLLTLESATSSQTSVYFCAISESSFAQPMNTEAFFGQGTRLTVV",binding result,recognises
